The text below walks through data of US20150057331A1.

The target of one assay is CCR5 (human) (UniProt P51681). In words: cell-based or functional assay.
The next assay has as its target CD4 (human) (UniProt P01730). As to the kind of experiment: cell-based or functional assay.

Take Monomeric gp120BaL (R5-tropic): the ATP release from primary human macrophages (luminescence assay), peak fold change against vehicle in the assay with CCR5 (human) and with CD4 (human) was 1.8 fold in each case.
For Monomeric gp120SF162 (R5-tropic), the ATP release from primary human macrophages (luminescence assay), peak fold change against vehicle with CCR5 (human) and in the assay with CD4 (human) was 1.8 fold throughout.
